# Test results: paper PMC4860839, “Structures of the APC–ARM domain in complexes with discrete Amer1/WTX fragments reveal that it uses a consensus mode to recognize its binding partners” (Cell Discovery, 2015)
# B1: Amer1-A4 (human, residues 337–455), two-hybrid prey [human] / pBTM-APC–ARM (residues 308–789), two-hybrid bait [human] (parent complex)
# chain 1: MDSMTDSMASGGQRANRDGTKRSSCLVTYQGGGEEMALPDDDDEEEEEEEEVELEEEEEEVKEEEEDDDLEYLWETAQMYPRPNMNLGYHPTTSPGHHGYMLLDPVRSYPGLAPGELLT
# chain 2: LGTKVEMVYSLLSMLGTHDKDDMSRTLLAMSSSQDSCISMRQSGCLPLLIQLLHGNDKDSVLLGNSRGSKEARARASAALHNIIHSQPDDKRGRREIRVLHLLEQIRAYCETCWEWQEAHEPGMDQDKNPMPAPVEHQICPAVCVLMKLSFDEEHRHAMNELGGLQAIAELLQVDCEMYGLTNDHYSITLRRYAGMALTNLTFGDVANKATLCSMKGCMRALVAQLKSESEDLQQVIASVLRNLSWRADVNSKKTLREVGSVKALMECALEVKKESTLKSVLSALWNLSAHCTENKADICAVDGALAFLVGTLTYRSQTNTLAIIESGGGILRNVSSLIATNEDHRQILRENNCLQTLLQHLKSHSLTIVSNACGTLWNLSARNPKDQEALWDMGAVSMLKNLIHSKHKMIAMGSAAALRNLMANRPAKYKDANIMSPGSSLPSLHVRKQKALEAELDAQHLSETFDNIDNLSPKASHRSKQ
# B2: pBTM-APC–ARM (residues 308–789), two-hybrid bait [human] / Amer1-A2 (murine, residues 388–551), two-hybrid prey [murine] (parent complex)
# chain 1: B1 chain 2
# chain 2: EEEEEEEEEEEEEEEEEEEEEELLEDEEEVKDGEENDDLEYLWASAQIYPRFNMNLGYHTAISPSHQGYMLLDPVQSYPNLGLGELLTPQSDQQESAPNSDEGYYDSTTPGFEDDSGEALGLAHRDCLPRDSYSGDALYEFYEPDDSLEHSPPGDDCLYDLRGR
# B3: Amer1-A2 (human, residues 380–531), two-hybrid prey [human] / pBTM-APC–ARM (residues 308–789), two-hybrid bait [human] (parent complex)
# chain 1: EEEEEEEEVELEEEEEEVKEEEEDDDLEYLWETAQMYPRPNMNLGYHPTTSPGHHGYMLLDPVRSYPGLAPGELLTPQSDQQESAPNSDEGYYDSTTPGFEDDSGEALGLVRRDCLPRDSYSGDALYEFYEPDDSLENSPPGDDCLYDLHGR
# chain 2: B1 chain 2
# B4: Amer1-A1 (human, residues 280–369), two-hybrid prey [human] / pBTM-APC–ARM (residues 308–789), two-hybrid bait [human] (parent complex)
# chain 1: SLEEPHSPETGEKVVAGEVNPPNGPVGDPLSLLFGDVTSLKSFDSLTGCGDIIAEQDMDSMTDSMASGGQRANRDGTKRSSCLVTYQGGG
# chain 2: B1 chain 2
# Variants of: B1
# Test: yeast two-hybrid assay (relative β-galactosidase reporter activity); parent: 100
row,percent of parent [%],Variant
1,0.85,chain 1 E34K

# Variants of: B2
# Test: as above
row,percent of parent [%],Variant
1,0.33,chain 1 N200K
2,0.12,chain 1 N243K
3,0.06,chain 1 R242E
4,87.8,chain 1 M410K
5,0.27,chain 1 K209E
6,75.2,chain 1 R420E

# Variants of: B3
# Test: as above
row,percent of parent [%],Variant
1,0.28,chain 1 D119K
2,0.17,chain 1 D124K

# Variants of: B4
# Test: as above
row,percent of parent [%],Variant
1,31.9,chain 1 D44K
2,65.2,chain 1 T47R
3,0,chain 1 D51K
